Reference: paper PMC9064290

Target: α1-specific anti-SynGAP antibody (06–800)
Test: western blot of cell lysates, band intensity quantified
Details: H293T cells transfected with wild-type or PBM EGFP-SynGAPα1; probed with Pan-SynGAP (D20C7) and α1-specific antibody; n = 4; parent: est. 1.0; read off a plot

ratio to parent: 0.45
Substance: EGFP-SynGAPα1 T/I; V/E (C-terminal PDZ-binding motif QTRV changed to QIRE)
